# Data as given in patent publication US20150376261A1.
# Key:
# hMor1-34GS-Nb10 (human) = assay: radioligand competition against [3H]-diprenorphine on Sf9 membranes
# hMor1-34GS-Nb33 (human) [1] = assay: as above
# hMor1-34GS-Nb33 (human) [2] = assay: ratio of the IC50s on hMor1-34GS-Nb10 (reference) and hMor1-34GS-Nb33 membranes, [3H]-diprenorphine competition
IC50 (hMor1-34GS-Nb10 (human)),IC50 (hMor1-34GS-Nb33 (human) [1]),IC50Nb10/IC50Nb33 (hMor1-34GS-Nb33 (human) [2]),Substance
655 nM,18 nM,–,Dmt1-Dalda (peptide)
76.7 nM,3.8 nM,20,KGOP01 (peptide)
